For one assay, the target named is FcRn. As to the kind of experiment: Biacore FcRn binding.
The target in another assay is T1, myostatin (UniProt O14793 267-375, limits assumed).
T1 sequence (looked up): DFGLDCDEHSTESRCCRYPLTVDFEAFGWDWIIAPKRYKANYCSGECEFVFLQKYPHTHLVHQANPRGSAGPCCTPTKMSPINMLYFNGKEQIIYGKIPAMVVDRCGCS
As to the kind of experiment: cell-based or functional assay.

Sequence of FcRn (chain, as listed by the source, chain 1 of 2): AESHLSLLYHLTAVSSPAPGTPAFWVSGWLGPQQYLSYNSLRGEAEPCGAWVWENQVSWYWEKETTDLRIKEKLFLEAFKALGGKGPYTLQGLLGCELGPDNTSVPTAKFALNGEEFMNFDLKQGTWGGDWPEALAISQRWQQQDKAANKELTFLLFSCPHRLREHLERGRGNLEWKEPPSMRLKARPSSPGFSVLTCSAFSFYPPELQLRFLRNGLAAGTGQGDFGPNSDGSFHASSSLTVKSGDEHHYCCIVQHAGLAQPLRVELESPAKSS
Sequence of FcRn (chain, as listed by the source, chain 2 of 2): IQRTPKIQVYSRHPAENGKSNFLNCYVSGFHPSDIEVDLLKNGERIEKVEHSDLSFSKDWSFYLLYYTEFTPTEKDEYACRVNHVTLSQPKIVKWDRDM

B1: Fc-Loop TN8-19-7 construct with insertion at Y77/N78 (CH2 domain) (Fc fusion, not shown: small tags and cut ends)
chain: MDKTHTCPPCPAPELLGGPSVFLFPPKPKDTLMISRTPEVTCVVVDVSHEDPEVKFNWYVDGVEVHNAKTKPREEQYLADHGQCIRWPWMCPPEGWENSTYRVVSVLTVLHQDWLNGKEYKCKVSNKALPAPIEKTISKAKGQPREPQVYTLPPSRDELTKNQVSLTCLVKGFYPSDIAVEWESNGQPENNYKTTPPVLDSDGSFFLYSKLTVDKSRWQQGNVFSCSVMHEALHNHYTQKSLSLSPGK
In the assay with FcRn, B1 came in with an EC50 of roughly 680 nM.

B2: Fc-loop TN8-19-07 (clone #6951) (Fc fusion)
chain: MDKTHTCPPCPAPELLGGPSVFLFPPKPKDTLMISRTPEVTCVVVDVSHEDPEVKFNWYVDGVEVHNAKTKPREEQYNSTYRVVSVLTVLHQDWLNGKEYKCKVSNKALPAPIEKTISKAKGQPREPQVYTLPPSRDELGGLADHGQCIRWPWMCPPEGWEGGTKNQVSLTCLVKGFYPSDIAVEWESNGQPENNYKTTPPVLDSDGSFFLYSKLTVDKSRWQQGNVFSCSVMHEALHNHYTQKSLSLSPGK
Regarding B2, the “IC50(nM), in vitro cell based myostatin inhibition assay (luciferase reporter, C2C12 pMARE-luc)” value with myostatin amounted to 0.834 nM.

B3: Fc-Loop TN8-19-7 construct with insertion at L139/T140 and asymmetric Gly4/Gly6 linkers (CH3 domain) (Fc fusion)
chain: MDKTHTCPPCPAPELLGGPSVFLFPPKPKDTLMISRTPEVTCVVVDVSHEDPEVKFNWYVDGVEVHNAKTKPREEQYNSTYRVVSVLTVLHQDWLNGKEYKCKVSNKALPAPIEKTISKAKGQPREPQVYTLPPSRDELGGGGLADHGQCIRWPWMCPPEGWEGGGGGGTKNQVSLTCLVKGFYPSDIAVEWESNGQPENNYKTTPPVLDSDGSFFLYSKLTVDKSRWQQGNVFSCSVMHEALHNHYTQKSLSLSPGK
With B3, the “IC50(nM), in vitro cell based myostatin inhibition assay (luciferase reporter, C2C12 pMARE-luc)” value with myostatin came to 0.873 nM.

B4: Fc-Loop TN8-19-7 construct with insertion at H49/E50 (CH2 domain) (Fc fusion, not shown: small tags and cut ends)
chain: MDKTHTCPPCPAPELLGGPSVFLFPPKPKDTLMISRTPEVTCVVVDVSHLADHGQCIRWPWMCPPEGWEEDPEVKFNWYVDGVEVHNAKTKPREEQYNSTYRVVSVLTVLHQDWLNGKEYKCKVSNKALPAPIEKTISKAKGQPREPQVYTLPPSRDELTKNQVSLTCLVKGFYPSDIAVEWESNGQPENNYKTTPPVLDSDGSFFLYSKLTVDKSRWQQGNVFSCSVMHEALHNHYTQKSLSLSPGK
B4: the EC50 in the assay with FcRn was roughly 680 nM.

Values taken from patent publication US20060140934A1 (Amgen, published 2006).
